According to patent US20060029947A1 (University of Texas, published 2006):

Target: Bacillus anthracis protective antigen (PA) (Bacillus anthracis, UniProt P13423 30-764)
Sequence (P13423 30-764 limits assumed): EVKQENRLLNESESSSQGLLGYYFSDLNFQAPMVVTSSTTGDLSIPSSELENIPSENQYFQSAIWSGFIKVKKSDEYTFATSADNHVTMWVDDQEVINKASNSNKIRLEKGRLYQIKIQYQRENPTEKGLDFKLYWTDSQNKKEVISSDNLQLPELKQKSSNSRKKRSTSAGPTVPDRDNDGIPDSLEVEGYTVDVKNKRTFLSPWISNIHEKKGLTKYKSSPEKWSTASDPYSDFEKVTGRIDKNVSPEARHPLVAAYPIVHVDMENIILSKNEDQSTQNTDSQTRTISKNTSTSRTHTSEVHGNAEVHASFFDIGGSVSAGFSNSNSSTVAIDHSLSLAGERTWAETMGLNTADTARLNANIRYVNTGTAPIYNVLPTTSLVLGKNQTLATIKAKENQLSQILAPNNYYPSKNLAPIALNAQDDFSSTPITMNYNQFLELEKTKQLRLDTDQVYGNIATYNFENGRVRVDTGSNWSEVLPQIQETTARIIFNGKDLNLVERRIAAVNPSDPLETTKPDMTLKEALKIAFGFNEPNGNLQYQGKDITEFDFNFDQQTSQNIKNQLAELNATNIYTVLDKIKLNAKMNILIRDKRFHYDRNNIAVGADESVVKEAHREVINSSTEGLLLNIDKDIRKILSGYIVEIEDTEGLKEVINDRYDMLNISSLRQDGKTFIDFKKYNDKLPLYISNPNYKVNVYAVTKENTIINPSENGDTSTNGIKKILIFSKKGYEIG

B1: M18 with the Q55L substitution, scAb (scFv)
chain: DIQMTQTTSSLSASLGDRVTVSCRASQDIRNYLNWYQQKPDGTVKFLIYYTSRLLPGVPSRFSGSGSGTDYSLTINNLEQEDIGTYFCQQGNTPPWTFGGGTKLEIKRGGGGSDGGGSGGGGSGGGGSEVQLQQSGPELVKPGASVKISCKDSGYAFNSSWMNWVKQRPGQGLEWIGRIYPGDGDSNYNGKFEGKAILTADKSSSTAYMQLSSLTSVDSAVYFCARSGLLRYAMDYWGQGTSVTVSS
- Kd: 0.021 nM
- koff: 2.4e-05 s⁻¹
- kon: 1.1e+06 M⁻¹ s⁻¹
